From IntAct's records for PubMed 35512704 come the findings set out here.

The chains are these.
B1: Mothers against decapentaplegic homolog 4 (Homo sapiens), Q13485 (parent)
chain: MDNMSITNTPTSNDACLSIVHSLMCHRQGGESETFAKRAIESLVKKLKEKKDELDSLITAITTNGAHPSKCVTIQRTLDGRLQVAGRKGFPHVIYARLWRWPDLHKNELKHVKYCQYAFDLKCDSVCVNPYHYERVVSPGIDLSGLTLQSNAPSSMMVKDEYVHDFEGQPSLSTEGHSIQTIQHPPSNRASTETYSTPALLAPSESNATSTANFPNIPVASTSQPASILGGSHSEGLLQIASGPQPGQQQNGFTGQPATYHHNSTTTWTGSRTAPYTPNLPHHQNGHLQHHPPMPPHPGHYWPVHNELAFQPPISNHPAPEYWCSIAYFEMDVQVGETFKVPSSCPIVTVDGYVDPSGGDRFCLGQLSNVHRTEAIERARLHIGKGVQLECKGEGDVWVRCLSDHAVFVQSYYLDREAGRAPGDAVHKIYPSAYIKVFDLRQCHRQMQQQAATAQAAAAAQAAAVAGNIPGPGSVGGIAPAISLSAAAGIGVDDLRRLCILRMSFVKGWGPDYPRQSIKETPCWIEIHLHRALQLLDEVLHTMPIADPQPLD
partner: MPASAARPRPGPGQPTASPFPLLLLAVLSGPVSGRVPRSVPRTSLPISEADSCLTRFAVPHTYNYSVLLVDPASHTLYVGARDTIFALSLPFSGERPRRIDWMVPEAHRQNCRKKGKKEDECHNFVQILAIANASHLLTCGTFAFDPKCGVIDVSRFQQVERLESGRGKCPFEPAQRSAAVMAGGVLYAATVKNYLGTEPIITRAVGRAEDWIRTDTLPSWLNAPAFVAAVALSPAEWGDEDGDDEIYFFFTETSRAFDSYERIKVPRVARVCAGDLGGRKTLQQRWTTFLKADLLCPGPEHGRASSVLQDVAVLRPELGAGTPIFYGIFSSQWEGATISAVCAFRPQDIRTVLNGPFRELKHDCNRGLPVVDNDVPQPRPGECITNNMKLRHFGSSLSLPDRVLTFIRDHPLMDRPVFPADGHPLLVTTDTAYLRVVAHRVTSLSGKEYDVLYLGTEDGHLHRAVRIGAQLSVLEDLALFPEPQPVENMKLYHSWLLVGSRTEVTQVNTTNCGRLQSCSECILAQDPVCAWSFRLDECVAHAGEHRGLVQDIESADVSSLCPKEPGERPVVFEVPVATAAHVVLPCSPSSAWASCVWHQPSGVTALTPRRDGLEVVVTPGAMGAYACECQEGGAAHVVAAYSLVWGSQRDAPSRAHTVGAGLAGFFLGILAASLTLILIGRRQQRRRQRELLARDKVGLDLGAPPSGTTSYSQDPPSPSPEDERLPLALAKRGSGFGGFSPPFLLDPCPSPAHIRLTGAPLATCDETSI
B2: Mothers against decapentaplegic homolog 4 (Homo sapiens), Q13485 (parent)
chain: B1 chain
partner: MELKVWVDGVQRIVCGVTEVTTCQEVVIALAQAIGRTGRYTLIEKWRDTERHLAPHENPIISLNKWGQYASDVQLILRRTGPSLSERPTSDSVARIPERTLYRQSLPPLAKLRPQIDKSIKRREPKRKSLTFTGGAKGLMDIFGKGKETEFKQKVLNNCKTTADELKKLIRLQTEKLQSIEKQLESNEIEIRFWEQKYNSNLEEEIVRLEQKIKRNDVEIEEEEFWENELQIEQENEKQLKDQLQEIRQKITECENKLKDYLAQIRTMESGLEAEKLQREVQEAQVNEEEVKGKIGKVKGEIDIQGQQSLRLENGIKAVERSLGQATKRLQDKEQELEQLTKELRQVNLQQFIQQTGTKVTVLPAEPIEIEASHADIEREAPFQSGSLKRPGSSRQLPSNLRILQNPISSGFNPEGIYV
B3: Mothers against decapentaplegic homolog 4 (Homo sapiens), Q13485 (parent)
chain: B1 chain
partner: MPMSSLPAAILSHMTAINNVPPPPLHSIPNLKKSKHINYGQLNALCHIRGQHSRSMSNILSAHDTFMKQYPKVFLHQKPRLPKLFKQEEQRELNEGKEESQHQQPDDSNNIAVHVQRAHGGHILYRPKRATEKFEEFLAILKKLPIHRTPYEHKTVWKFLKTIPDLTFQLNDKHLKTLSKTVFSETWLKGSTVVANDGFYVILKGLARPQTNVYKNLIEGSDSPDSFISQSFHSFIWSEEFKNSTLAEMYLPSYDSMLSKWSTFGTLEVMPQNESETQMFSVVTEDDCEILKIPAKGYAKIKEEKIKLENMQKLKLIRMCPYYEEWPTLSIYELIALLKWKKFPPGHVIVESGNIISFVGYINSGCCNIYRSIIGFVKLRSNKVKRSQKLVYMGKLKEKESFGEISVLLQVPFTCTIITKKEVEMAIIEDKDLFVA
B4: Mothers against decapentaplegic homolog 4 (Homo sapiens), Q13485 (parent)
chain: B1 chain
partner: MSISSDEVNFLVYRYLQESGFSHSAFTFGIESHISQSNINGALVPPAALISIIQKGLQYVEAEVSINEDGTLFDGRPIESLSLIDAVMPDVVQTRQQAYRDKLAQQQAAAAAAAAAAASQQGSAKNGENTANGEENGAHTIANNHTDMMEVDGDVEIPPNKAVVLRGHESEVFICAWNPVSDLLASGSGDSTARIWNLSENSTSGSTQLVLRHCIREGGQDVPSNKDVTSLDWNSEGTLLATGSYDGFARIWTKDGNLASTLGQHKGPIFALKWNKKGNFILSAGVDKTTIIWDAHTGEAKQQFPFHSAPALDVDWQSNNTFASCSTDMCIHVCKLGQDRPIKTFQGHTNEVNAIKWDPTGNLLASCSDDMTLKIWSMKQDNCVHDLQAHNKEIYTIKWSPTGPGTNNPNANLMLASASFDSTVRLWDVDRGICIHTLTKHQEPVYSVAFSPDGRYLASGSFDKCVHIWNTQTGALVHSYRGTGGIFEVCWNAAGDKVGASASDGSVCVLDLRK
B5: Mothers against decapentaplegic homolog 4 (Homo sapiens), Q13485 (parent)
chain: B1 chain
partner: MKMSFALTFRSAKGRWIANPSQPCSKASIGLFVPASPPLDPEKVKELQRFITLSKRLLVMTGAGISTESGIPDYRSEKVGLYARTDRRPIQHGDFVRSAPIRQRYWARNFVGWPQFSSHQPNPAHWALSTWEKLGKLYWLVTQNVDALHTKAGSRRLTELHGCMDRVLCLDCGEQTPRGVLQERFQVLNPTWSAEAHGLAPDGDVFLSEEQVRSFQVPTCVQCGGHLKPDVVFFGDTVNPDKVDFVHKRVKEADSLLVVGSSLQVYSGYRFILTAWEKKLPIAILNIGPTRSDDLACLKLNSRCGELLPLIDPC
B6: Mothers against decapentaplegic homolog 4 (Homo sapiens), Q13485 (parent)
chain: B1 chain
partner: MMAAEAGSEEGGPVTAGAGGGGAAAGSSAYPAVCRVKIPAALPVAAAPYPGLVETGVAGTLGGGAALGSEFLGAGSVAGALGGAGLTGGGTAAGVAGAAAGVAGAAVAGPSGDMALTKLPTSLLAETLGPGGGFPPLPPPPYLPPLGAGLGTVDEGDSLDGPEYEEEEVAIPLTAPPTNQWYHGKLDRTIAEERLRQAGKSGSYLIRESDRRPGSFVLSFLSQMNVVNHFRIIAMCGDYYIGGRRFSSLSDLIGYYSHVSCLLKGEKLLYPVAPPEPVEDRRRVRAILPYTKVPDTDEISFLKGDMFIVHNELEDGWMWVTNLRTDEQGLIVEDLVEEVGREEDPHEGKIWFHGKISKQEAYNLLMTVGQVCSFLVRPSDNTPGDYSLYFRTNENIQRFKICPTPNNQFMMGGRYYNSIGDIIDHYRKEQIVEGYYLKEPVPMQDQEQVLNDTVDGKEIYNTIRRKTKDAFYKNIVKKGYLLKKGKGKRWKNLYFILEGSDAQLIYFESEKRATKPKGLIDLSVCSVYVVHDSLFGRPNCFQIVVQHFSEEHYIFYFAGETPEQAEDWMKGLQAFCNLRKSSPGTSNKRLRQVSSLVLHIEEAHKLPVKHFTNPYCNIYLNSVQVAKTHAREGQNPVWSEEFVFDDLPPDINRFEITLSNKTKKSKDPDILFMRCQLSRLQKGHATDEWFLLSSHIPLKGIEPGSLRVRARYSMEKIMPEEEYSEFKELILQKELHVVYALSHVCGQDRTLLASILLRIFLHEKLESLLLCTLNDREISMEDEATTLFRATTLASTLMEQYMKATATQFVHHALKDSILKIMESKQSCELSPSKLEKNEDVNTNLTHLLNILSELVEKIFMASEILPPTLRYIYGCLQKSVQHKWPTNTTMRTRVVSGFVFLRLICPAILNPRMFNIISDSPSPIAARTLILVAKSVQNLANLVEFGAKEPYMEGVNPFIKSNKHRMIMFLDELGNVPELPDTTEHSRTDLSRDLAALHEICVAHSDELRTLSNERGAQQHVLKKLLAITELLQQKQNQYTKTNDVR

In one test the parent is B1. As to conditions: with sem4f_human SEMA4F.
Regarding R361C, the “effect of a mutation on the interaction” value is reported as “with no effect”.

Another test covers variants of B1. As to conditions: with sem4f_human SEMA4F. The source holds these as a separate data set.
For the variant R361H, the “effect of a mutation on the interaction” value was “with no effect”.

The variants in a further test derive from B1. As to conditions: with sem4f_human SEMA4F. This is another data set of the same source.
As for G386D, the “effect of a mutation on the interaction” value is on record as “with no effect”.

The variants in the next test derive from B1. As to conditions: with sem4f_human SEMA4F. The source holds these as a separate data set.
Consider G386D, for which the “effect of a mutation on the interaction” value is listed as “causing an interaction”.

Variants of B2 are the subject of a further test. As to conditions: with rasf8_human RASSF8, Q8NHQ8.
For the variant G386D, the “effect of a mutation on the interaction” value is “with no effect”.

The variants in another test derive from B2. As to conditions: with rasf8_human RASSF8, Q8NHQ8. The source holds these as a separate data set.
Consider G386D, for which the “effect of a mutation on the interaction” value is on record as “increasing interaction strength”.

Another test covers variants of B2. As to conditions: with rasf8_human RASSF8, Q8NHQ8. The source holds these as a separate data set.
Consider R361C, for which the “effect of a mutation on the interaction” value is “with no effect”.

A further test covers variants of B2. As to conditions: with rasf8_human RASSF8, Q8NHQ8. The source holds these as a separate data set.
With R361H, the “effect of a mutation on the interaction” value is “with no effect”.

Variants of B3 are the subject of another test. As to conditions: with cnbd1_human CNBD1, Q8NA66.
Take R361H: the “effect of a mutation on the interaction” value was “with no effect”.

Variants of B4 are the subject of the next test. As to conditions: with tbl1r_human TBL1XR1, Q9BZK7.
On to G386D, for which the “effect of a mutation on the interaction” value was “with no effect”.

The next test covers variants of B5. As to conditions: with sir4_human SIRT4, Q9Y6E7.
As for G386D, the “effect of a mutation on the interaction” value was “with no effect”.

The next test covers variants of B6. As to conditions: with rasa1_human RASA1, P20936.
Regarding R361H, the “effect of a mutation on the interaction” value was “with no effect”.
